Target: endogenous human CXC chemokine receptor subtype 3 (CXCR3) (human) (UniProt P49682)
Assay: cell-based or functional assay

UniProt P49682, sequence (P49682 whole entry): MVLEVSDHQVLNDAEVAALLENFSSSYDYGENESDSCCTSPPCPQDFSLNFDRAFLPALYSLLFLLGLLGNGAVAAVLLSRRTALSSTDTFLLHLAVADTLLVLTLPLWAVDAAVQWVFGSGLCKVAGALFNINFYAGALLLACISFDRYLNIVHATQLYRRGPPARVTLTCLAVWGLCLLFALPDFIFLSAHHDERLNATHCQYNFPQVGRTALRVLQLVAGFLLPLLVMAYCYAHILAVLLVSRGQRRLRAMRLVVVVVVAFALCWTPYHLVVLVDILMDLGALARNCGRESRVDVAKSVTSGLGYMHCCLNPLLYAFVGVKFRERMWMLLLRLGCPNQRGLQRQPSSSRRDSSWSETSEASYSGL

| EC50, pigment aggregation in pre-dispersed (MSH-treated) melanophores transfected with the receptor [nM] | Substance |
| --- | --- |
| 0.29 | monokine inducible γ-interferon (Mig) (from UniProt Q07325 23-125) (ligand) |
| 0.15 | γ-interferon inducible protein-10 (IP-10) (from UniProt P02778 22-98) (ligand) |
